Data on 35 sequences can be found in the supplement of paper PMC12764529.

± gives the half width of the 95% confidence interval.

A short description of series [1]: folding stability dG unfold from trypsin proteolysis; higher = more stable. Summed up:
(§1)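 Unfolding free energy was derived, per protease or combined, by relating Bayesian-fitted K50 values from sequencing counts to a sequence-predicted unfolded-state K50 and a shared folded-state K50. The underlying digests exposed cysteine-free mini-proteins under 80 residues, in a PA-tagged cDNA display construct, to trypsin and chymotrypsin at 11 threefold-diluted concentrations and to a no-protease condition. A filter kept only designs with AlphaFold2 dimer inter-PAE above 15.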

Series [2] can be described thus: folding stability dG unfold (combined trypsin and chymotrypsin); higher = more stable. Summed up: as §1
Series [3] in a line: folding stability dG unfold from chymotrypsin proteolysis; higher = more stable. In short, it runs like this:
as §1

For the sequence “SAGGSAGGSEEEVEIVDVEIEEKDGKLVIRAKIRNKETGELYEVTLVFDKETGELHLEVRKLPSAGGSAGGS [r12_14_TrROS_Hall]”, the results for the “folding stability dG unfold” value in series [1], in series [2] and in series [3] were 3.99 ± 0.097 kcal/mol, 3.95 ± 0.15 kcal/mol and 3.78 ± 0.13 kcal/mol, respectively.
The corresponding values for “SAGGSAGGSEEVVVVEVEGELVVVTKEETVTVVPAPPPPPLTAEQRALAKELEKLGLEVEIRDSAGGSAGGS [r12_172_TrROS_Hall]” are -0.192 ± 0.16 kcal/mol, -0.38 ± 0.37 kcal/mol and -0.505 ± 0.11 kcal/mol.
As for “SAGGSAGGSEITIFIKGLPDPEAIADQIADAFGYPVKDVDVQRMPNNPWMMITVTYNGKEITISAGGSAGGS [r12_935_TrROS]”, the entries for the “folding stability dG unfold” value in series [1], in series [2] and in series [3] were 1.58 ± 0.022 kcal/mol, 1.86 ± 0.083 kcal/mol and 1.97 ± 0.03 kcal/mol, respectively.
The matching figures for “SAGGSAGGSEITITLDEETGELHITVPESVKEVKIKVNGEEKTVTLKPGQTLTIPLENVEIEESAGGSAGGS [r20_26_TrROS_Hall]”: 1.75 ± 0.11 kcal/mol, 1.7 ± 0.2 kcal/mol and 1.55 ± 0.063 kcal/mol.
“SAGGSAGGSEITLVFKTKEEAEKAAEELAKKYNVEVTVEENEETGLYVVTIKLPENGKEITILSAGGSAGGS [r12_635_TrROS_Hall]”: the “folding stability dG unfold” value in series [1] is 1.68 ± 0.064 kcal/mol; in series [2] it was 1.96 ± 0.19 kcal/mol; in series [3] it was 2.03 ± 0.059 kcal/mol.
In the case of “SAGGSAGGSEKEGTLLVKLINPENPEEKVIPLKFKVKTKEDVDTFLENIKKKYPGVTVEVEDLSAGGSAGGS [r12_65_TrMRF]”, the “folding stability dG unfold” value in series [1] was found to be 0.659 ± 0.049 kcal/mol; in series [2], 0.643 ± 0.17 kcal/mol; in series [3], 0.684 ± 0.21 kcal/mol.
The corresponding values for “SAGGSAGGSEKEIEIELPEGAEIVEIDEEKGVITVRVNGKLIEIEIKPVKVEKVEVELPPEEESAGGSAGGS [r12_243_TrROS_Hall]” are 2.77 ± 0.19 kcal/mol, 2.4 ± 0.17 kcal/mol and 1.73 ± 0.13 kcal/mol.
On to “SAGGSAGGSEKEIEVNGKKITIEKNEDGSYKLIIEVNGKKYEITLSLEELKKKNLTIEELLKKSAGGSAGGS [r20_90_TrROS_Hall]”, for which the “folding stability dG unfold” value in series [1] turned out to be 1.92 ± 0.072 kcal/mol; in series [2] it was 3.26 ± 0.16 kcal/mol; in series [3], 3.61 ± 0.13 kcal/mol.
The corresponding values for “SAGGSAGGSEKEVYVRNENGELYRFRAKAAPKLKLKLKLELERDENGNLSLRLELEVVSEEDLSAGGSAGGS [r12_1027_TrROS_Hall]” are 3.57 ± 0.14 kcal/mol, 4.63 ± 0.4 kcal/mol and 5.18 ± 0.15 kcal/mol.
In the case of “SAGGSAGGSEKKFKIVSVKVEYNKETGTVTIEVEIYDEKTGKLVLKATITINKNGELKITLEPSAGGSAGGS [r12_115_TrROS_Hall]”, the “folding stability dG unfold” value in series [1] is 3.9 ± 0.45 kcal/mol; in series [2], > 6 kcal/mol; in series [3] it was 5.26 ± 0.46 kcal/mol.
The corresponding values for “SAGGSAGGSEKPEVEKITLEITLTDEDGNKHTIKVELVRNAKTKKYYLRITLEDGSEFVFEIDSAGGSAGGS [r12_286_TrROS_Hall]” are 3.88 ± 0.14 kcal/mol, 4.71 ± 0.13 kcal/mol and 4.83 ± 0.14 kcal/mol.
The corresponding values for “SAGGSAGGSEKVTIRFPAKELRERFPNATPEQIADRIAKKFPNIKRIEVEQEPGYYRITVQVESAGGSAGGS [r12_590_TrROS]” are 2.58 ± 0.12 kcal/mol, 2.15 ± 0.12 kcal/mol and 1.49 ± 0.043 kcal/mol.
Take “SAGGSAGGSELNIEKIVVLDYDPETGLAYVKIFYGDGEVKEFKVKSLEELKEKFPDVEILEKGSAGGSAGGS [r12_403_TrMRF]”: the “folding stability dG unfold” value was determined as 3.64 ± 0.12 kcal/mol in series [1], 4.43 ± 0.065 kcal/mol in series [2] and 4.57 ± 0.084 kcal/mol in series [3].
The matching figures for “SAGGSAGGSELPIKEITVTSYDPKTGKYTVTITQGEGPTYTTTATSPEEVKKRYPDVKVTTSGSAGGSAGGS [r12_403_JUSTAS]”: 0.434 ± 0.053 kcal/mol, 0.718 ± 0.056 kcal/mol and 0.786 ± 0.035 kcal/mol.
Consider “SAGGSAGGSEPVTVMFWFDSPEEIDELIDELKGAGIKKVEMEPFPGRYWLTITVDGAEIHIMFSAGGSAGGS [r12_846_TrROS]”, for which the “folding stability dG unfold” value came to 2.45 ± 0.067 kcal/mol in series [1], 3.29 ± 0.14 kcal/mol in series [2] and 3.786 ± 0.031 kcal/mol in series [3].
As to “SAGGSAGGSEPVVLTLPTPRGGRITITYDPSSNTATVTLPDGTVVTLSVTSVAEAKAAALAALSAGGSAGGS [r12_866_JUSTAS]”, the “folding stability dG unfold” value in series [1] was determined as 3.18 ± 0.04 kcal/mol; in series [2], 3.515 ± 0.025 kcal/mol; in series [3], 3.698 ± 0.018 kcal/mol.
The matching figures for “SAGGSAGGSESKITILVLDEETQELYLIEVTLKYNPETGELETEMKIEKITLKPGEKLDLKDLSAGGSAGGS [r12_700_TrROS_Hall]”: 2.43 ± 0.2 kcal/mol, 2.94 ± 0.2 kcal/mol and 3.28 ± 0.13 kcal/mol.
The matching figures for “SAGGSAGGSETVTLELTLEDGRTLRIEFDPETQRLTVTFPDGSKQEIEVETLDDALAALLEALSAGGSAGGS [r12_866_TrROS_Hall]”: 2.91 ± 0.11 kcal/mol, 3.6 ± 0.062 kcal/mol and 3.81 ± 0.072 kcal/mol.
On to “SAGGSAGGSFEFPENRPNAKVKVVVQRPDGSPEEFEAEVLPDGTVTLDLPDYPIDRILSVEFGSAGGSAGGS [r12_477_TrMRF]”, for which the “folding stability dG unfold” value in series [1] is 0.0306 ± 0.12 kcal/mol; in series [2], -0.221 ± 0.17 kcal/mol; in series [3] it was -0.377 ± 0.19 kcal/mol.
With “SAGGSAGGSFRIDPEKIEKVKHHRNPNGGGYHTIRLPGGPVKIPFRGMDPGDMEDQVKNFLKNSAGGSAGGS [r12_585_TrROS]”, the “folding stability dG unfold” value stood at 0.161 ± 0.11 kcal/mol in series [1], 0.236 ± 0.14 kcal/mol in series [2] and 0.267 ± 0.19 kcal/mol in series [3].
The matching figures for “SAGGSAGGSFVDPDGYKVIEFPIPMDDPGRIKEEVMDQFNLKDVKVEWEPTPGWYWVSIIVEPSAGGSAGGS [r12_929_TrROS]”: 0.74 ± 0.093 kcal/mol, 0.832 ± 0.14 kcal/mol and 0.815 ± 0.16 kcal/mol.
The matching figures for “SAGGSAGGSGDDIPTLTLVIKVDPNAITPEDIEEIKQAFLDLGYKEVTVTRNPETGYLVVELGSAGGSAGGS [r12_1025_TrMRF]”: 3.03 ± 0.25 kcal/mol, 3.01 ± 0.21 kcal/mol and 2.93 ± 0.11 kcal/mol.
As to “SAGGSAGGSGFKIVKVDTETGYVYVEVPKSAEKELEKLPSVEKVEEKEDSVLYRLRIPPFAALSAGGSAGGS [r12_694_TrMRF]”, the “folding stability dG unfold” value was 1.78 ± 0.069 kcal/mol in series [1], 1.81 ± 0.19 kcal/mol in series [2] and 1.95 ± 0.086 kcal/mol in series [3].
Regarding “SAGGSAGGSGGMMSRTINVSVNPAPGESPEDIVKALAAELGVTIKSVKYSTSSSSLTFTIEVVSAGGSAGGS [r20_188_JUSTAS]”, the “folding stability dG unfold” value in series [1] is 1.05 ± 0.04 kcal/mol; in series [2], 2.16 ± 0.068 kcal/mol; in series [3], 2.48 ± 0.077 kcal/mol.
For “SAGGSAGGSGIKIIMEFIFPDDGYIFKIEIDIKPNPENGEPVIEMKIEMYPIDPGQPPDLKDLSAGGSAGGS [r12_700_TrROS]”, the figures for the “folding stability dG unfold” value in series [1], in series [2] and in series [3] were 2.48 ± 0.11 kcal/mol, 3.26 ± 0.2 kcal/mol and 3.45 ± 0.071 kcal/mol, respectively.
Consider “SAGGSAGGSGIKITEYKINPETGTIEKTEIYIKPIPNTNKLKIEKKTKSIPILPDQKPDLSLDSAGGSAGGS [r12_700_TrMRF]”, for which the results for the “folding stability dG unfold” value in series [1], in series [2] and in series [3] were -0.235 ± 0.18 kcal/mol, 0.412 ± 0.27 kcal/mol and 0.809 ± 0.36 kcal/mol, respectively.
The matching figures for “SAGGSAGGSGITIPAGSPEKVYELLSALEKLGFKPKKVSVSGNYVIVDFENGIPVNIEINPGKSAGGSAGGS [r20_93_TrMRF]”: 1.06 ± 0.059 kcal/mol, 2.38 ± 0.052 kcal/mol and 2.85 ± 0.039 kcal/mol.
The corresponding values for “SAGGSAGGSGKKRKVEIPIFFSGPPEVADNLAKTLAQELGLPPEDVDIEIKVIPIMPPEQMAESAGGSAGGS [r12_1066_TrROS]” are 0.477 ± 0.054 kcal/mol, 0.721 ± 0.076 kcal/mol and 0.818 ± 0.046 kcal/mol.
The corresponding values for “SAGGSAGGSGLTKELAKKFNVTAIEEFENGLVKILTKPPIKGNPYLAIIDPKNKKVYIIPLNPSAGGSAGGS [r12_944_TrMRF]” are 0.849 ± 0.037 kcal/mol, 1.29 ± 0.071 kcal/mol and 1.62 ± 0.082 kcal/mol.
With “SAGGSAGGSGMEKIVVEVKFPDGTVETYEFPAGVPVNIDPAVTGDVKITTLDPEGKTTEYVLKSAGGSAGGS [r12_380_JUSTAS]”, the “folding stability dG unfold” value in series [1] was -0.0804 ± 0.046 kcal/mol; in series [2] it was -0.118 ± 0.1 kcal/mol; in series [3], -0.297 ± 0.2 kcal/mol.
Turning to “SAGGSAGGSGMELEKLLESVKEVKVEPTSSGEKEVTITLKPPEPSETEVKIDKETYEKLLELKSAGGSAGGS [r12_466_JUSTAS]”, the entries for the “folding stability dG unfold” value in series [1], in series [2] and in series [3] were -0.907 ± 0.21 kcal/mol, 0.137 ± 0.12 kcal/mol and 0.404 ± 0.024 kcal/mol, respectively.
For the sequence “SAGGSAGGSGMKTLTIEFPNVTLEEAKEAVLKLLEELGLEPIPLEKVTITYHPENPNVITVVESAGGSAGGS [r12_122_JUSTAS]”, the “folding stability dG unfold” value came to 1.5 ± 0.098 kcal/mol in series [1], 1.35 ± 0.17 kcal/mol in series [2] and 1.14 ± 0.12 kcal/mol in series [3].
As to “SAGGSAGGSGPMPVVVPVEVVVAPGEVDAYVARLRAEGLEVLSVETEPDPEGGTRVTVTVRRLSAGGSAGGS [r12_905_JUSTAS]”, the results for the “folding stability dG unfold” value in series [1], in series [2] and in series [3] were 2.74 ± 0.054 kcal/mol, 3.41 ± 0.059 kcal/mol and 3.72 ± 0.057 kcal/mol, respectively.
Regarding “SAGGSAGGSGSLRLRVRSPEQALEWLRRVLPPDFDLTPEELEELVRFLLATSEVTPDGYLLLRSAGGSAGGS [r12_983_TrMRF]”, the “folding stability dG unfold” value in series [1] amounted to 1.826 ± 0.018 kcal/mol; in series [2], 2.32 ± 0.042 kcal/mol; in series [3] it was 2.52 ± 0.051 kcal/mol.
As for “SAGGSAGGSGSMKEIEIEIPKDDPQLIEKIKEELKQKNSKKVEVKEIKKTPEGKYKVKIIIEESAGGSAGGS [r12_91_JUSTAS]”, the “folding stability dG unfold” value came to 1.03 ± 0.1 kcal/mol in series [1], 0.879 ± 0.17 kcal/mol in series [2] and 0.901 ± 0.081 kcal/mol in series [3].
